From patent publication US12012446B2, “Epstein-Barr virus antibodies and uses thereof” (priority 2017, dated 2024)

Biological target: T1, EBV gH/gL (Epstein-Barr virus, UniProt P03212+P03231)
T1 construct: expressed in transfected cells; host or cells: CHO cells
Test: Flow cytometry of gH/gL-expressing CHO cells
Assay type: binding
From the text: FIGS. 10A-10B show the comparison of murine E1D1 (mE1D1) and humanized E1D1 (hE1D1). FIG. 10A: Sequence comparison of mE1D1 and hE1D1. Alignment of heavy chain (i) and light chain (ii) variable region amino acid sequences by the Clustal W. Murine E1D1 heavy chain and light chain AA sequences are represented by SEQ ID NOs: 183 and 184, respectively, and humanized E1D1 heavy chain and light chain AA sequences are represented by SEQ ID NOs: 185 and 186, respectively. Regions of identical sequence are represented by *. Regions of similarity are represented by :. FIG. 10B: Flow cytometric analysis of mE1D1 and hE1D1 gH/gL specificity. CHO wild type cells and gH/gL-expressing CHO cells were stained with mE1 D1 and hE1 D1, followed by secondary goat anti-mouse or anti-human conjugated to AF488. Unstained cells and cells stained with secondary goat anti-mouse or anti-human conjugated to AF488 alone, were used as negative controls.
Similar to Example 4, humanized E1D1 antibody was produced and its specificity was compared to mouse E1D1 by flow cytometric analysis (FIG. 10).
Flow cytometric analysis of gp350 and gH/gL specificity was performed. CHO wild type cells and gp350 or gH/gL-expressing CHO cells were stained with primary antibodies, followed by secondary goat anti-mouse or anti-human conjugated to AF488. […]

B1: humanized E1D1: humanized anti-EBV gH/gL antibody E1D1; SEQ ID NOs: 185 and 186 (antibody, V domains shown)
VH: EVQLVESGGGLVQPGGSLRLSCAASGYTFTDYVISWVRQSPGKGLEWIGEIYPESGNTYYADSVKGRATLSADKSKNTAYLQMNSLRAEDTAIYFCAEGYAMDFWGQGTLVTVSS
VL: DIQMTQSPILLSASVGDRVTITCRSSQSLLHSNGNTYLHWYQQRTNGSPRLLIYKVSNRFSGVPSRFSGSGSGTDFTLTISSLQPEDEADYFCSQSIHVPRTFGAGTKVEIKR
binding specificity to EBV gH/gL by flow cytometry: did not affect its binding specificity to EBV gH/gL
